The text below walks through data of patent US20210371537A1 (MERRIMACK PHARMACEUTICALS, published 2021).

T1: human TNFR2 on GloResponse NF-kB-RE-luc2p HEK293 reporter cells (human, UniProt P20333 23-461)
T1 sequence: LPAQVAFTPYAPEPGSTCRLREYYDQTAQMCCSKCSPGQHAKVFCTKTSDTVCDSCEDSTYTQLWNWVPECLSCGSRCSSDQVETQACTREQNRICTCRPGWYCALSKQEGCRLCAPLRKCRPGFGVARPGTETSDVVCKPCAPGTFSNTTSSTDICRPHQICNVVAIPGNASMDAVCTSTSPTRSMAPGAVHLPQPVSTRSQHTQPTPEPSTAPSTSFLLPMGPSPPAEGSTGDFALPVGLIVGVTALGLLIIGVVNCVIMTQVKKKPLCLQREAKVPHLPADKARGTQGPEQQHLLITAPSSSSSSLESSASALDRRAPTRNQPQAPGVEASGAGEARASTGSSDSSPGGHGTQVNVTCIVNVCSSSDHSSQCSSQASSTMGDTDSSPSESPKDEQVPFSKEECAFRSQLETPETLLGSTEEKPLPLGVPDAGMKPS

T2: human TNFR2-His (human, UniProt P20333 23-257)
T2 construct: not shown: His tag
T2 sequence: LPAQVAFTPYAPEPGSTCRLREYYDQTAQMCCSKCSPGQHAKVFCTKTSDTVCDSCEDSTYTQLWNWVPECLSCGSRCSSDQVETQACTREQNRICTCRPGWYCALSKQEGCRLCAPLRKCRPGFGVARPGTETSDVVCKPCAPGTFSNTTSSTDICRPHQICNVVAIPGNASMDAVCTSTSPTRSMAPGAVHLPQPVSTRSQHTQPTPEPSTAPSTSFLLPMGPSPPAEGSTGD

B1: ABV2.7 (antibody, human IgG1, kappa, V domains shown)
VH: QVQLVQSGSELKKPGASVKVSCKASGYTFTTFGMSWVRQAPGQGLEWMGWINTYSGVPTYAQGFTGRFVFSLDTSVSTAYLQISSLKAEDTAVYFCARRSNFAYWGQGTLVTVSS
VL: DIVLTQSPDSLAVSLGERATINCRASESLTASGNSFMHWYQQKPGQPPKLLIYRASNLESGVPDRFSGSGSRTDFTLTISSLQAEDVAVYYCQQSRHVNWTFGGGTKVEIKR
B2: ABV2.13 (antibody, human IgG1, kappa, V domains shown)
VH: B1 VH with T59H
VL: DIVLTQSPDSLAVSLGERATINCRASQTVDSSGNSFMHWYQQKPGQPPKLLIYLGNRLESGVPDRFSGSGSRTDFTLTISSLQAEDVAVYYCQQSNEDPWTFGGGTKVEIKR
B3: ABV2.1 (ABV2 hum #2 HD3) (antibody, V domains shown)
VH: B1 VH
VL: DIVLTQSPDSLAVSLGERATINCRASESVDSSGNSFMHWYQQKPGQPPKLLIYRASNLESGVPDRFSGSGSRTDFTLTISSLQAEDVAVYYCQQSNEDPWTFGGGTKVEIK
notes: humanized ABV2; also called parental antibody
B4: ABV2.15 (antibody, human IgG1, kappa, V domains shown)
VH: B1 VH with T59H
VL: B1 VL
B5: ABV2 chimera (ABV2c) (antibody, human IgG1, kappa, V domains shown)
VH: QIQLVQSGPELKKPGETVKISCKASGYTFTTFGMSWVKQAPGKGLKWMGWINTYSGVPTYADDFKGRFAFSLETSASTAYLQINNLKNEDTATYFCARRSNFAYWGQGTLVTVSA
VL: DIVLTQSPASLAVSLGQRATISCRASESVDSSGNSFMHWYQQKAGQSFKLLIYRASNLESGIPARFSGSGSRTDFTLTINPVEADDVATYYCQQSNEDPWTFGGGTKLEIKR
notes: VH and VL of mouse ABV2 fused with human IgG1 and human kappa constant regions; also called ABVc; chimeric anti-human TNFR2 antibody

Residue numbers refer to the chain shown, from its start.

Chain of his-tagged mouse TNFR2 (mouse) (P25119 23-258 limits assumed): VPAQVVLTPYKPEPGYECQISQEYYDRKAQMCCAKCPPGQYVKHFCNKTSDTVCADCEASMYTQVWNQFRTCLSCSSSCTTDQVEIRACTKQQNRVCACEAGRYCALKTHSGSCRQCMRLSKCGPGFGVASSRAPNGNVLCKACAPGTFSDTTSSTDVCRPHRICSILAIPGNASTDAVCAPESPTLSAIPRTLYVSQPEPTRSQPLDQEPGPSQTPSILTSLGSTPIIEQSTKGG

The first assay has as its target his-tagged mouse TNFR2 (mouse) (UniProt P25119). As to the kind of experiment: blocking ELISA: His-tagged mouse TNFR2 coated, antibody titrated, then recombinant mouse TNF-alpha added and detected; OD450 normalized. (In an ELISA, binding on a coated surface is turned into a signal by an enzyme label.)
Regarding 54.7 (Bioxcell) (antibody), the IC50 (read off the curve) is 2 nM.

The target of another assay is T1, human TNFR2 on GloResponse …. As to the kind of experiment: cell-based or functional assay.
On to B1, for which the “EC50 in stimulating NF-kB activity” value is 10.8 µg/mL.
Same read-out and setting: under B2 stands 4.1 µg/mL.
As to B3, the “EC50 of induced NF-kB activity” value is 1.6 µg/mL.
As for B4, the “EC50 in stimulating NF-kB activity” value came out at 9.3 µg/mL and the “EC50 of induced NF-kB activity” value was determined as 5.3 µg/mL.
As for B5, the “EC50 in stimulating NF-kB activity” value turned out to be 8.6 µg/mL.

The next assay has as its target T2, human TNFR2-His. As to the kind of experiment: BLI, antibody on anti-Human Fc Capture (AHC) biosensors, human TNFR2-His in solution. The procedure:
Binding affinities for human TNFR2 of the affinity-matured anti-human TNFR2 antibodies generated in Example 30 were measured by bio-layer interferometry (BLI). Briefly, a BLI kinetic assay was performed using anti-Human Fc Capture (AHC) biosensors (ForteBio) under the following conditions: (a) loading of antibody (4 μg/mL) for 60 sec, (b) baseline for 60 sec, (d) association with human TNFR2-His ([…]) for 300 sec, and (e) dissociation for 300 sec.
A general note: Biolayer interferometry detects binding as a change in optical thickness at a sensor tip.
In general, Kd refers to the constant that tells how readily two partners part at equilibrium. B1 displayed a Kd of 0.3 nM.
B2 yielded a Kd of 1.59 nM.
Still for that read-out and setting: under B3 stands 4.42 nM; under B4, 0.158 nM; under B5, 0.689 nM.
